# Test results reported in IntAct's records for PubMed 24217340.
# B1: Zinc finger protein GLI2 (Mus musculus), Q0VGT2 (parent)
# chain: METSAPAPALEKKEAKSGLLEDSSFPDPGKKACPLAVAAAVAAHGVPQQLLPAFHAPLPIDMRHQEGRYHYDPHSVHSVHGPPTLSGSPVISDISLIRLSPHPAGPGESPFSAHHPYVNPHMEHYLRSVHSSPTLSMISAARGLSPADVAHEHLKERGLFSLAAPGTNPSDYYHQMTLMASHPTPYGDLLMQSGGAASAPHLHDYLNPVDASRFSSPRVTPRLSRKRALSISPLSDASLDLQRMIRTSPNSLVAYINNSRSSSAASGSYGHLSAGALSPAFTFPHPINPVAYQQILSQQRGLGSAFGHTPPLIQPSPTFLAQQPMTLTSISTMPTQLSSSSSNCLNDANQNKQNSESAVSSTVNPITIHKRSKVKTEAEGLRPASPLGLTQEQLADLKEDLDRDDCKQEAEVVIYETNCHWADCTKEYDTQEQLVHHINNEHIHGEKKEFVCRWQACTREQKPFKAQYMLVVHMRRHTGEKPHKCTFEGCSKAYSRLENLKTHLRSHTGEKPYVCEHEGCNKAFSNASDRAKHQNRTHSNEKPYICKIPGCTKRYTDPSSLRKHVKTVHGPDAHVTKKQRNDVHVRAPLLKENGDNEASAEPGGRGPEESVEASSTSHTVEDCLHIKAIKTESSGLCQSSPGAQSSCSSEPSPLGSAPNNDSGMEMPGTGPGSLGDLTALADTCPGADTSALAAPSTGGLQLRKHMSTVHRFEQLKREKLKSLKDSCSWAGPAPHTRNTKLPPLPVNGSVLENFNNTGGGGPAGLLPSQRLPELTEVTMLSQLQERRDSSTSTMSSAYTVSRRSSGISPYFSSRRSSEASPLGGLRPHNASSADSYDPISTDASRRSSEASQCSGGGPGLLNLTPAQQYNLRAKYAAATGGPPPTPLPGLDRVSLRTRLALLDAPERALPGACPHPLGPRRGSDGPTYSHGHGHGYAGAAPAFPHEGPNSSTRRASDPVRRPDPLILPRVQRFHSTHNMNPGSLPPCADRRGLHVQSHPSVDSNLTRNAYSPRPPSINENVVMEAVAAGVDGPGLECDLGLVEDELVLPDDVVQYIKAHTGGTLDDGIRQGYPTEGTGFPENSKLPSPGLQGHRRLAAADSNMGPSAPGLGGCQLSYSPSSNLNKSNMPVQWNEVSSGTVDALPTQVKPPPFPHSNLAVVQQKPAFGQYPGYNPQSVQSSSGGLDSTQPHLQLRGAPSASRGSYTQQPRQPAAGSQCLGMSAAMSPQASYSQAHPQLSPNIVSGSLNQFSPSCSNMAAKPSHLGLPQQMEVVPNATIMNGHQREHGVPNSSLAAVSQPHPVLSYPQQDSYQQGSNLLSSHQPGFMESQQNAGFGLMQPRPPLEPNTASRHRGVRSGQQQLYARTTGQAMVTSANQETAEAMPKGPAGTMVSLAPQPSQDTGRAQDQNTLYYYGQIHMYEQNGGCPAVQPQPPQPQACSDSIQPEPLPSPGVNQVSSTVDSQLLEPPQIDFDAIMDDGDHSSLFSGALSPTLLHNLSQNSSRLTTPRNSLTLPSIPAGISNMAVGDMSSMLTSLAEESKFLNMMT
# partner: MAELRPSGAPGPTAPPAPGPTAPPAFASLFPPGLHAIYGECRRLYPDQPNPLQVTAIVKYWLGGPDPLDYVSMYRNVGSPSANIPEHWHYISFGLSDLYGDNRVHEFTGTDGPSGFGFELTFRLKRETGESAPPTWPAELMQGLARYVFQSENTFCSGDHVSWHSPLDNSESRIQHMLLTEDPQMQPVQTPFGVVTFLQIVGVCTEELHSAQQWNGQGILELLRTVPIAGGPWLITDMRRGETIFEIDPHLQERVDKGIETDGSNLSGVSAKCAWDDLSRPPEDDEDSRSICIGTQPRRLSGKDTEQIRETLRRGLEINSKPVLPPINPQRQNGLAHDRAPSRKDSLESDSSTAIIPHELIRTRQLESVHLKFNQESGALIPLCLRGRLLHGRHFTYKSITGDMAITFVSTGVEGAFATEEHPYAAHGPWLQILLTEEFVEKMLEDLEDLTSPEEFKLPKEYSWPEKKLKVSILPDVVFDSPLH
# B2: Zinc finger protein GLI1 (Homo sapiens), P08151 (parent)
# chain: MFNSMTPPPISSYGEPCCLRPLPSQGAPSVGTEGLSGPPFCHQANLMSGPHSYGPARETNSCTEGPLFSSPRSAVKLTKKRALSISPLSDASLDLQTVIRTSPSSLVAFINSRCTSPGGSYGHLSIGTMSPSLGFPAQMNHQKGPSPSFGVQPCGPHDSARGGMIPHPQSRGPFPTCQLKSELDMLVGKCREEPLEGDMSSPNSTGIQDPLLGMLDGREDLEREEKREPESVYETDCRWDGCSQEFDSQEQLVHHINSEHIHGERKEFVCHWGGCSRELRPFKAQYMLVVHMRRHTGEKPHKCTFEGCRKSYSRLENLKTHLRSHTGEKPYMCEHEGCSKAFSNASDRAKHQNRTHSNEKPYVCKLPGCTKRYTDPSSLRKHVKTVHGPDAHVTKRHRGDGPLPRAPSISTVEPKREREGGPIREESRLTVPEGAMKPQPSPGAQSSCSSDHSPAGSAANTDSGVEMTGNAGGSTEDLSSLDEGPCIAGTGLSTLRRLENLRLDQLHQLRPIGTRGLKLPSLSHTGTTVSRRVGPPVSLERRSSSSSSISSAYTVSRRSSLASPFPPGSPPENGASSLPGLMPAQHYLLRARYASARGGGTSPTAASSLDRIGGLPMPPWRSRAEYPGYNPNAGVTRRASDPAQAADRPAPARVQRFKSLGCVHTPPTVAGGGQNFDPYLPTSVYSPQPPSITENAAMDARGLQEEPEVGTSMVGSGLNPYMDFPPTDTLGYGGPEGAAAEPYGARGPGSLPLGPGPPTNYGPNPCPQQASYPDPTQETWGEFPSHSGLYPGPKALGGTYSQCPRLEHYGQVQVKPEQGCPVGSDSTGLAPCLNAHPSEGPPHPQPLFSHYPQPSPPQYLQSGPYTQPPPDYLPSEPRPCLDFDSPTHSTGQLKAQLVCNYVQSQQELLWEGGGREDAPAQEPSYQSPKFLGGSQVSPSRAKAPVNTYGPGFGPNLPNHKSGSYPTPSPCHENFVVGANRASHRAAAPPRLLPPLPTCYGPLKVGGTNPSCGHPEVGRLGGGPALYPPPEGQVCNPLDSLDLDNTQLDFVAILDEPQGLSPPPSHDQRGSSGHTPPPSGPPNMAVGNMSVLLRSLPGETEFLNSSA
# partner: B1 partner
# B3: Suppressor of fused homolog (Homo sapiens), Q9UMX1 (parent)
# chain: B1 partner
# Variants of: B1
# Settings: with sufu_human SUFU, Q9UMX1
row,Variant,effect of a mutation on the interaction
1,G270A;H271A;L272D,disrupting interaction
2,G270V;H271E;L272D,disrupting interaction

# Variants of: B2
# Settings: with sufu_human SUFU, Q9UMX1
row,Variant,effect of a mutation on the interaction
1,G122A;H123A;L124D,decreasing interaction

# Variants of: B3
# Settings: with gli1_human GLI1, P08151
row,Variant,effect of a mutation on the interaction
1,MAELRPSGAPGPTAPPAPGPTAPPAFASLFPPGLHAIYGECRRLYPDQPNPLQVTAIVKYWLGGPDPLDYVSMYRNVGSPSANIPEHWHYISFGLSDLYGDNRVHEFTGTDGPSGFGFELTFRLKRETGESAPPTWPAELMQGLARRVFQSENTACSGRHVSWHSPLDNSESRIQHMLLTEDPQMQPVQTPFGVVTFLQIVGVCTEELHSAQQWNGQGILELLRTVPIAGGPWLITDMRRGETIFEIDPHLQERVDKGIETDGSNLSGVSAKCAWDDLSRPPEDDEDSRSICIGTQPRRLSGKDTEQIRETLRRGLEINSKPVLPPINPQRQNGLAHDRAPSRKDSLESDSSTAIIPHELIRTRQLESVHLKFNQESGARIPLCLRGRLLHGRHFTYKSITGDMAITFVSTGVEGAFATEEHPYAAHGPWLQILLTEEFVEKMLEDLEDLTSPEEFKLPKEYSWPEKKLKVSILPDVVFDSPLH [Y147R;F155A;D159R;L380R],disrupting interaction
2,MAELRPSGAPGPTAPPAPGPTAPPAFASLFPPGLHAIYGECRRLYPDQPNPLQVTAIVKYWLGGPDPLDYVSMYRNVGSPSANIPEHWHYISFGLSDLYGDNRVHEFTGTDGPSGFGFELTFRLKRETGESAPPTWPAELMQGLARRVFQSENTACSGAHVSWHSPLDNSESRIQHMLLTEDPQMQPVQTPFGVVTFLQIVGVCTEELHSAQQWNGQGILELLRTVPIAGGPWLITDMRRGETIFEIDPHLQERVDKGIETDGSNLSGVSAKCAWDDLSRPPEDDEDSRSICIGTQPRRLSGKDTEQIRETLRRGLEINSKPVLPPINPQRQNGLAHDRAPSRKDSLESDSSTAIIPHELIRTRQLESVHLKFNQESGARIPLCLRGRLLHGRHFTYKSITGDMAITFVSTGVEGAFATEEHPYAAHGPWLQILLTEEFVEKMLEDLEDLTSPEEFKLPKEYSWPEKKLKVSILPDVVFDSPLH [Y147R;F155A;D159A;L380R],disrupting interaction

# Variants of: B3
# Settings: with gli1_human GLI1, P08151
# Remark: another data set of the same source
row,Variant,effect of a mutation on the interaction
1,MAELRPSGAPGPTAPPAPGPTAPPAFASLFPPGLHAIYGECRRLYPDQPNPLQVTAIVKYWLGGPDPLDYVSMYRNVGSPSANIPEHWHYISFGLSDLYGDNRVHEFTGTDGPSGFGFELTFRLKRETGESAPPTWPAELMQGLARRVFQSENTACSGRHVSWHSPLDNSESRIQHMLLTEDPQMQPVQTPFGVVTFLQIVGVCTEELHSAQQWNGQGILELLRTVPIAGGPWLITDMRRGETIFEIDPHLQERVDKGIETDGSNLSGVSAKCAWDDLSRPPEDDEDSRSICIGTQPRRLSGKDTEQIRETLRRGLEINSKPVLPPINPQRQNGLAHDRAPSRKDSLESDSSTAIIPHELIRTRQLESVHLKFNQESGALIPLCLRGRLLHGRHFTYKSITGDMAITFVSTGVEGAFATEEHPYAAHGPWLQILLTEEFVEKMLEDLEDLTSPEEFKLPKEYSWPEKKLKVSILPDVVFDSPLH [Y147R;F155A;D159R],disrupting interaction

# Variants of: B3
# Settings: with gli2_mouse Gli2, Q0VGT2
row,Variant,effect of a mutation on the interaction
1,MAELRPSGAPGPTAPPAPGPTAPPAFASLFPPGLHAIYGECRRLYPDQPNPLQVTAIVKYWLGGPDPLDYVSMYRNVGSPSANIPEHWHYISFGLSDLYGDNRVHEFTGTDGPSGFGFELTFRLKRETGESAPPTWPAELMQGLARYVFQSENTFCSGDHVSWHSPLDNSESRIQHMLLTEDPQMQPVQTPFGVVTFLQIVGVCTEELHSAQQWNGQGILELLRTVPIAGGPWLITDMRRGETIFEIDPHLQERVDKGIETDGSNLSGVSAKCAWDDLSRPPEDDEDSRSICIGTQPRRLSGKDTEQIRETLRRGLEINSKPVLPPINPQRQNGLAHDRAPSRKDSLESDSSTAIIPHELIRTRQLESVHLKFNQESGARIPLCLRGRLLHGRHFTYKSITGDMAITFVSTGVEGAFATEEHPYAAHGPWLQILLTEEFVEKMLEDLEDLTSPEEFKLPKEYSWPEKKLKVSILPDVVFDSPLH [L380R],decreasing interaction

# Variants of: B3
# Settings: with gli2_mouse Gli2, Q0VGT2
# Remark: another data set of the same source
row,Variant,effect of a mutation on the interaction
1,MAELRPSGAPGPTAPPAPGPTAPPAFASLFPPGLHAIYGECRRLYPDQPNPLQVTAIVKYWLGGPDPLDYVSMYRNVGSPSANIPEHWHYISFGLSDLYGDNRVHEFTGTDGPSGFGFELTFRLKRETGESAPPTWPAELMQGLARYVFQSENTFCSGDHVSWHSPLDNSESRIQHMLLTEDPQMQPVQTPFGVVTFLQIVGVCTEELHSAQQWNGQGILELLRTVPIAGGPWLITDMRRGETIFEIDPHLQERVDKGIETDGSNLSGVSAKCAWDDLSRPPEDDEDSRSICIGTQPRRLSGKDTEQIRETLRRGLEINSKPVLPPINPQRQNGLAHDRAPSRKDSLESDSSTAIIPHELIRTRQLESVHLKFNQESGARIPLCLRGRLLHGRHFTYKSITGDMAITFVSTGVEGAFATEEHPYAAHGPWLQILLTEEFVEKMLEDLEDLTSPEEFKLPKEYSWPEKKLKVSILPDVVFDSPLH [L380R],disrupting interaction
